The target in experiment [1] is Fc tagged human PDL1 (human) (UniProt Q9NZQ7). Kind of experiment: SPR Biacore T200; PDL1-Fc captured; molecule 0.12-90 nM. A general note: SPR reads the build-up and loss of mass on a sensor chip optically.
Experiment [2] addresses human CD137-Fc chimeric protein (human) (UniProt Q07011). As to the kind of experiment: SPR Biacore T200; CD137-Fc captured; molecule as analyte.
Experiment [3] concerns the target human PDL1 (recombinant, soluble) (human) (UniProt Q9NZQ7). As to the kind of experiment: PDL1/B7-1 competition ELISA; B7-1 coated, biotinylated PDL1 40 ng/ml. For orientation: ELISA stands for enzyme-linked immunosorbent assay.
For experiment [4] the target is unchanged. Kind of experiment: PDL1/PD-1 competition ELISA; PD-1 coated, biotinylated PDL1 1 ng/ml.
Experiment [5] concerns the target human PDL1 expressed on cells (human) (UniProt Q9NZQ7). As to the kind of experiment: cell-based or functional assay.

B1: PRO1432 (scDb-scFv: 33-03-G02 sc18 / 38-02-A04 sc013 / 19-01-H04 sc03) (protein, from a related filing)
chain: DIQMTQSPSSLSASVGDRVTITCQASQSINNVLAWYQQKPGKAPKLLIYRASTLASGVPSRFSGSGSGTDFTLTISSLQPEDFATYYCQSSYGNYGDFGCGTKVTVLGGGGGSQVQLQESGPGLVKPSETLSLTCKASGFSFSSGYDMCWVRQPPGKGLEWIACVVAGSVDITYYASWAKGRVTISKDSSKNQVSLKLSSVTAADTAVYYCARKDAYSDAFNLWGQGTLVTVSSGGGGSGGGGSGGGGSGGGGSIQMTQSPSSLSASVGDRVTITCQASQSINDYLAWYQQKPGKAPKLLIYKASTLASGVPSRFSGSGSGTDFTLTISSLQPEDFATYYCQQGYIITDIDNVFGTGTKVTVLGGGGGSEVQLVESGGGLVQPGGSLRLSCAASGFSFSNSYWICWVRQAPGKCLEWIGCTFVGSSDSTYYANWAKGRFTISRDNSKNTVYLQMNSLRAEDTAVYYCARHPSDAVYGYANNLWGQGTLVTVSSGGGGSGGGGSIQMTQSPSSLSASVGDRVTITCQSSESVYSNNQLSWYQQKPGQPPKLLIYDASDLASGVPSRFSGSGSGTDFTLTISSLQPEDFATYYCAGGFSSSSDTAFGGGTKLTVLGGGGGSGGGGSGGGGSGGGGSEVQLVESGGGLVQPGGSLRLSCAASGFSLSSNAMGWVRQAPGKGLEYIGIISVGGFTYYASWAKGRFTISRDNSKNTVYLQMNSLRAEDTATYFCARDRHGGDSSGAFYLWGQGTLVTVSS
The Kd is the concentration at which binding is half-saturated. High values mean lower affinity, low ones higher affinity. Broadly, the koff is the first-order rate constant of dissociation. Read a low koff as a long-lived complex. The term kon denotes a measure of how fast the partners come together. Lower therefore signals slower complex formation. One may read the IC50 as the midpoint of a concentration-inhibition curve. In experiment [1], B1 gave a dissociation constant (Kd) of 0.011 nM, a dissociation rate constant (koff) of 4.4e-05 s⁻¹ and an on-rate (kon) of 4.2e+06 M⁻¹ s⁻¹. Besides, in experiment [2], the Kd came to 0.75 nM, the koff turned out to be 0.00045 s⁻¹ and the kon is 600000 M⁻¹ s⁻¹. Moreover, in experiment [3], the IC50 is 2.83 ng/mL and the rel. IC50 (IC50, Avelumab/IC50, test molecule) is 0.99. In addition, in experiment [4], the IC50 came to 3.26 ng/mL and the rel. IC50 (IC50, Avelumab/IC50, test molecule) worked out at 0.43. In experiment [5], the NF-AT potency assay IC50 (with HSA) came out at 18.5 ng/mL and the NF-AT potency assay rel. IC50 (IC50, Avelumab/IC50, test molecule) (with HSA) came out at 1.98.
